Reference: patent US20190382463A1

Target: human type 1 insulin-like growth factor receptor (human) (UniProt P08069)
Assay: competitive displacement assay, plate capture of solubilized receptor (tracer for IGF-1R not stated)

A Kd of 5 nM was found for “KP-insulin ([Lys^B28, Pro^B29]-insulin, insulin Lispro) (ligand; other documents disagree on this pair)” in this work.
